We go through 7 molecules from US5405946A, “Recombinant protein S variants deficient in C4BP binding activity, compositions and therapeutic methods” (The Scripps Research Institute, priority 1992, dated 1995).

Test [1] concerns the target activated protein C (APC) (Homo sapiens, UniProt P04070). The test is described as follows: Activated partial thromboplastin time clotting assay, APC cofactor activity in PS- and C4BP-depleted plasma. The test is classed as biochemical. Here is the method: (§1) An activated partial thromboplastin time clotting assay, using PS- and C4BP-depleted plasma, cephalin-kaolin reagent (Boehringer Mannhein, Indianapolis, Ind.), activated protein C (APC) and increasing amounts of recombinant PS variants was performed as described by Chang et al., Thromb. Haemost., 67:526-532 (1992). Briefly, to 50 ul PS and C4BP-depleted plasma (prepared as described by Koedam et al., J. Clin. Invest., 82:1236-1243 (1988)) was added 50 ul cephalin-kaolin reagent, 25 ul APC (Koedam et al., ibid) at 5 ug/ml and 15 to 45 ul recombinant PS variants (0-4 ug/ml) diluted in Michaelis buffer (28.5 mM sodium acetate, 28.5 mM sodium barbital and 116 mM NaCl, pH 7.35) and maintained for 3 minutes at 37C. Clotting was initiated by addition of 50 ul of 25 mM CaCl2 and the clotting time was measured in an Amelung-Coagulometer KC10.
(§2) The ability of the variants to serve as a cofactor for APC was tested in a clotting assay. The clotting assay was performed as described in Example 2D. To examine the effects of thrombin on recombinant PS variants APC cofactor activity, one ml of purified recombinant PS variants listed above and prepared in Example 1D (4-40 ug/ml) was maintained with 1/20 vol (50 ul) of thrombin-Sepharose for 1 hour at 37C. in 50 mM Tris-HCl pH 7.5 containing […]. Thrombin-Sepharose was removed by centrifugation. Supernatants containing the thrombin-treated PS were stored at -20C. until used.
(§3) The PS-dependent prolongation of the clotting time was measured in an activated partial thromboplastin time system using PS and C4BP depleted plasma, APC and cephalin-kaolin reagent as described in Example 2D. Increasing amounts of recombinant PS or the triple variant treated without or with thrombin were added. Clotting was initiated by the addition of CaCl2 and the clotting time was measured. The results are presented as the means of duplicate values.

Test [2] deals with T1, thrombin (Homo sapiens, UniProt P00734).
T1 construct: maintained with 1/20 vol (50 ul) of thrombin-Sepharose for 1 hour at 37C
The test is described as follows: APC cofactor clotting assay after thrombin-Sepharose treatment of PS variants. The class given is biochemical. Conditions: for Clotting Time After Treatment: after thrombin treatment, without protein S 72 ± 2 seconds. Here is the method:
as §1, §2, §3

Setting [3] is: concentration 2.38 ug/ml, without protein S 72 ± 2 seconds.
Where [4] appears, read: concentration 0.60 ug/ml, without protein S 72 ± 2 seconds.
Setting [5] is: concentration 1.12 ug/ml, without protein S 72 ± 2 seconds.

Chain of activated protein C (APC) (P04070 212-461 limits assumed): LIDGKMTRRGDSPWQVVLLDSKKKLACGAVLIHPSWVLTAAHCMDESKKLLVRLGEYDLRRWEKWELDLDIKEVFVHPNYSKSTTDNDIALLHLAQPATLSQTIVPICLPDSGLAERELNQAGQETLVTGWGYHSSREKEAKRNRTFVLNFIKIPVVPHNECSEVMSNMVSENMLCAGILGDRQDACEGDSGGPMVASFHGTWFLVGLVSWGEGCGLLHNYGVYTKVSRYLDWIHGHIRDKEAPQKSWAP
Chain of activated protein C (APC) (P04070 43-197 limits assumed): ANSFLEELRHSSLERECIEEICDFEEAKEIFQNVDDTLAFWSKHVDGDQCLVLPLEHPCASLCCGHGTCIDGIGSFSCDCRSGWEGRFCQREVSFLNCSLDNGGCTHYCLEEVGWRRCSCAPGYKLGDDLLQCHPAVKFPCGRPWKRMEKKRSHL

Turning to “rPS wild-type: recombinant wild-type full length human protein S expressed in C127I cells [reference compound]”, the “Clotting Time” value in test [1] (setting [3]) turned out to be 91 s; in test [1] (final conc. 2.4 ug/ml, basal clotting 80), 116 s. For the same molecule, in test [2] (concentration 2.38 ug/ml), the “Clotting Time After Treatment” value was 70 s. Besides, the “APC cofactor activity after treatment with thrombin” value in test [2] (thrombin-Sepharose 1 hour at 37C) is recorded as “significantly decreased”.

B1: R49L variant: recombinant protein S single variant in thrombin-sensitive domain, arginine 49 replaced by leucine (protein, UniProt P07225 42-676, looked up, variant R49L)
Vitamin K-dependent protein S: ANSLLEETKQGNLERECIEELCNKEEAREVFENDPETDYFYPKYLVCLLSFQTGLFTAARQSTNAYPDLRSCVNAIPDQCSPLPCNEDGYMSCKDGKASFTCTCKPGWQGEKCEFDINECKDPSNINGGCSQICDNTPGSYHCSCKNGFVMLSNKKDCKDVDECSLKPSICGTAVCKNIPGDFECECPEGYRYNLKSKSCEDIDECSENMCAQLCVNYPGGYTCYCDGKKGFKLAQDQKSCEVVSVCLPLNLDTKYELLYLAEQFAGVVLYLKFRLPEISRFSAEFDFRTYDSEGVILYAESIDHSAWLLIALRGGKIEVQLKNEHTSKITTGGDVINNGLWNMVSVEELEHSISIKIAKEAVMDINKPGPLFKPENGLLETKVYFAGFPRKVESELIKPINPRLDGCIRSWNLMKQGASGIKEIIQEKQNKHCLVTVEKGSYYPGSGIAQFHIDYNNVSSAEGWHVNVTLNIRPSTGTGVMLALVSGNNTVPFAVSLVDSTSEKSQDILLSVENTVIYRIQALSLCSDQQSHLEFRVNRNNLELSTPLKIETISHEDLQRQLAVLDKAMKAKVATYLGGLPDVPFSATPVNAFYNGCMEVNINGVQLDLDEAISKHNDIRAHSCPSVWKKTKNS
On to B1, for which, in test [1] (setting [4]), the “Clotting Time” value is 80 s. Moreover, in test [2] (concentration 0.60 ug/ml), the “Clotting Time After Treatment” value was found to be 72 s.

B2: R70I variant: recombinant protein S single variant in thrombin-sensitive domain, arginine 70 replaced by isoleucine (protein, UniProt P07225 42-676, looked up, variant R70I)
Vitamin K-dependent protein S: ANSLLEETKQGNLERECIEELCNKEEAREVFENDPETDYFYPKYLVCLRSFQTGLFTAARQSTNAYPDLISCVNAIPDQCSPLPCNEDGYMSCKDGKASFTCTCKPGWQGEKCEFDINECKDPSNINGGCSQICDNTPGSYHCSCKNGFVMLSNKKDCKDVDECSLKPSICGTAVCKNIPGDFECECPEGYRYNLKSKSCEDIDECSENMCAQLCVNYPGGYTCYCDGKKGFKLAQDQKSCEVVSVCLPLNLDTKYELLYLAEQFAGVVLYLKFRLPEISRFSAEFDFRTYDSEGVILYAESIDHSAWLLIALRGGKIEVQLKNEHTSKITTGGDVINNGLWNMVSVEELEHSISIKIAKEAVMDINKPGPLFKPENGLLETKVYFAGFPRKVESELIKPINPRLDGCIRSWNLMKQGASGIKEIIQEKQNKHCLVTVEKGSYYPGSGIAQFHIDYNNVSSAEGWHVNVTLNIRPSTGTGVMLALVSGNNTVPFAVSLVDSTSEKSQDILLSVENTVIYRIQALSLCSDQQSHLEFRVNRNNLELSTPLKIETISHEDLQRQLAVLDKAMKAKVATYLGGLPDVPFSATPVNAFYNGCMEVNINGVQLDLDEAISKHNDIRAHSCPSVWKKTKNS
For B2, in test [1] (setting [4]), the “Clotting Time” value stood at 79 s. Also, in test [2] (concentration 0.60 ug/ml), the “Clotting Time After Treatment” value came to 75 s.

B3: R60L variant: recombinant protein S single variant in thrombin-sensitive domain, arginine 60 replaced by leucine (protein, UniProt P07225 42-676, looked up, variant R60L)
Vitamin K-dependent protein S: ANSLLEETKQGNLERECIEELCNKEEAREVFENDPETDYFYPKYLVCLRSFQTGLFTAALQSTNAYPDLRSCVNAIPDQCSPLPCNEDGYMSCKDGKASFTCTCKPGWQGEKCEFDINECKDPSNINGGCSQICDNTPGSYHCSCKNGFVMLSNKKDCKDVDECSLKPSICGTAVCKNIPGDFECECPEGYRYNLKSKSCEDIDECSENMCAQLCVNYPGGYTCYCDGKKGFKLAQDQKSCEVVSVCLPLNLDTKYELLYLAEQFAGVVLYLKFRLPEISRFSAEFDFRTYDSEGVILYAESIDHSAWLLIALRGGKIEVQLKNEHTSKITTGGDVINNGLWNMVSVEELEHSISIKIAKEAVMDINKPGPLFKPENGLLETKVYFAGFPRKVESELIKPINPRLDGCIRSWNLMKQGASGIKEIIQEKQNKHCLVTVEKGSYYPGSGIAQFHIDYNNVSSAEGWHVNVTLNIRPSTGTGVMLALVSGNNTVPFAVSLVDSTSEKSQDILLSVENTVIYRIQALSLCSDQQSHLEFRVNRNNLELSTPLKIETISHEDLQRQLAVLDKAMKAKVATYLGGLPDVPFSATPVNAFYNGCMEVNINGVQLDLDEAISKHNDIRAHSCPSVWKKTKNS
With B3, the “Clotting Time” value in test [1] (setting [3]) is 90 s. In test [2] (concentration 2.38 ug/ml), the “Clotting Time After Treatment” value was 75 s.

B4: R49L/R60L variant: recombinant protein S double variant in thrombin-sensitive domain (protein, UniProt P07225 42-676, looked up, variant R49L R60L)
Vitamin K-dependent protein S: ANSLLEETKQGNLERECIEELCNKEEAREVFENDPETDYFYPKYLVCLLSFQTGLFTAALQSTNAYPDLRSCVNAIPDQCSPLPCNEDGYMSCKDGKASFTCTCKPGWQGEKCEFDINECKDPSNINGGCSQICDNTPGSYHCSCKNGFVMLSNKKDCKDVDECSLKPSICGTAVCKNIPGDFECECPEGYRYNLKSKSCEDIDECSENMCAQLCVNYPGGYTCYCDGKKGFKLAQDQKSCEVVSVCLPLNLDTKYELLYLAEQFAGVVLYLKFRLPEISRFSAEFDFRTYDSEGVILYAESIDHSAWLLIALRGGKIEVQLKNEHTSKITTGGDVINNGLWNMVSVEELEHSISIKIAKEAVMDINKPGPLFKPENGLLETKVYFAGFPRKVESELIKPINPRLDGCIRSWNLMKQGASGIKEIIQEKQNKHCLVTVEKGSYYPGSGIAQFHIDYNNVSSAEGWHVNVTLNIRPSTGTGVMLALVSGNNTVPFAVSLVDSTSEKSQDILLSVENTVIYRIQALSLCSDQQSHLEFRVNRNNLELSTPLKIETISHEDLQRQLAVLDKAMKAKVATYLGGLPDVPFSATPVNAFYNGCMEVNINGVQLDLDEAISKHNDIRAHSCPSVWKKTKNS
B4: in test [1] (setting [5]), the “Clotting Time” value worked out at 88 s. The “Clotting Time After Treatment” value in test [2] (concentration 1.12 ug/ml) is 80 s.

B5: R60L/R70I variant: recombinant protein S double variant in thrombin-sensitive domain (protein, UniProt P07225 42-676, looked up, variant R60L R70I)
Vitamin K-dependent protein S: ANSLLEETKQGNLERECIEELCNKEEAREVFENDPETDYFYPKYLVCLRSFQTGLFTAALQSTNAYPDLISCVNAIPDQCSPLPCNEDGYMSCKDGKASFTCTCKPGWQGEKCEFDINECKDPSNINGGCSQICDNTPGSYHCSCKNGFVMLSNKKDCKDVDECSLKPSICGTAVCKNIPGDFECECPEGYRYNLKSKSCEDIDECSENMCAQLCVNYPGGYTCYCDGKKGFKLAQDQKSCEVVSVCLPLNLDTKYELLYLAEQFAGVVLYLKFRLPEISRFSAEFDFRTYDSEGVILYAESIDHSAWLLIALRGGKIEVQLKNEHTSKITTGGDVINNGLWNMVSVEELEHSISIKIAKEAVMDINKPGPLFKPENGLLETKVYFAGFPRKVESELIKPINPRLDGCIRSWNLMKQGASGIKEIIQEKQNKHCLVTVEKGSYYPGSGIAQFHIDYNNVSSAEGWHVNVTLNIRPSTGTGVMLALVSGNNTVPFAVSLVDSTSEKSQDILLSVENTVIYRIQALSLCSDQQSHLEFRVNRNNLELSTPLKIETISHEDLQRQLAVLDKAMKAKVATYLGGLPDVPFSATPVNAFYNGCMEVNINGVQLDLDEAISKHNDIRAHSCPSVWKKTKNS
Turning to B5, the “Clotting Time” value in test [1] (setting [4]) was 79 s. Also, the “Clotting Time After Treatment” value in test [2] (concentration 0.60 ug/ml) worked out at 72 s.

B6: R49L/R70I variant: recombinant protein S double variant in thrombin-sensitive domain (protein, UniProt P07225 42-676, looked up, variant R49L R70I)
Vitamin K-dependent protein S: ANSLLEETKQGNLERECIEELCNKEEAREVFENDPETDYFYPKYLVCLLSFQTGLFTAARQSTNAYPDLISCVNAIPDQCSPLPCNEDGYMSCKDGKASFTCTCKPGWQGEKCEFDINECKDPSNINGGCSQICDNTPGSYHCSCKNGFVMLSNKKDCKDVDECSLKPSICGTAVCKNIPGDFECECPEGYRYNLKSKSCEDIDECSENMCAQLCVNYPGGYTCYCDGKKGFKLAQDQKSCEVVSVCLPLNLDTKYELLYLAEQFAGVVLYLKFRLPEISRFSAEFDFRTYDSEGVILYAESIDHSAWLLIALRGGKIEVQLKNEHTSKITTGGDVINNGLWNMVSVEELEHSISIKIAKEAVMDINKPGPLFKPENGLLETKVYFAGFPRKVESELIKPINPRLDGCIRSWNLMKQGASGIKEIIQEKQNKHCLVTVEKGSYYPGSGIAQFHIDYNNVSSAEGWHVNVTLNIRPSTGTGVMLALVSGNNTVPFAVSLVDSTSEKSQDILLSVENTVIYRIQALSLCSDQQSHLEFRVNRNNLELSTPLKIETISHEDLQRQLAVLDKAMKAKVATYLGGLPDVPFSATPVNAFYNGCMEVNINGVQLDLDEAISKHNDIRAHSCPSVWKKTKNS
For the molecule B6, the “Clotting Time” value in test [1] (setting [5]) came out at 86 s. Besides, the “Clotting Time After Treatment” value in test [2] (concentration 1.12 ug/ml) was 80 s.
